Measured values as given in article PMC4777856, “Structural Basis of Stereospecificity in the Bacterial Enzymatic Cleavage of β-Aryl Ether Bonds in Lignin” (The Journal of Biological Chemistry, 2015).

Columns and labels:
[1] = substrate: COc1ccc(C(=O)[C@H](CO)Oc2ccc(C=O)cc2OC)cc1OC; assay: purified protein; format: biochemical, Sphingobium sp. SYK-6; settings: 5 mM GSH, 25 mM Tris, 2.5% DMSO, pH 8.0, 30 °C
[2] = substrate: COc1ccc(C(=O)[C@@H](CO)Oc2ccc(C=O)cc2OC)cc1OC; assay: purified protein; format: biochemical, Sphingobium sp. SYK-6; settings: 5 mM GSH, 25 mM Tris, 2.5% DMSO, pH 8.0, 30 °C

B1: LigF (Sphingobium sp. SYK-6) (protein)
chain: MTLKLYSFGPGANSLKPLATLYEKGLEFEQVFVDPSKFEQHSDWFKKINPRGQVPALWHDGKVVTESTVICEYLEDVFPESGNSLRPADPFKRAEMRVWTKWVDEYFCWCVSTIGWAFGIKAIAQKMSDEEFEEHINKNVPIPEQQLKWRRARNGFPQEMLDEEFRKVGVSVARLEETLSKQDYLVDTGYSLADICNFAIANGLQRPGGFFGDYVNQEKTPGLCAWLDRINARPAIKEMFEKSKREDLLKRQNEKVA
notes: full-length wild type LigF (254 residues), vector pVP102KSSLigF; dimer
Km [1]: 269 ± 1 µM | Vmax [1]: 63.8 µmol/min/mg | kcat [1]: 31.9 ± 0.1 s⁻¹ | kcat/Km [1]: 118400 ± 1100 M⁻¹ s⁻¹

B2: LigE (Sphingobium sp. SYK-6) (protein)
chain: MARNNTITLYDLQLESGCTISPYVWRTKYALKHKGFDIDIVPGGFTGILERTGGRSERVPVIVDDGEWVLDSWVIAEYLDEKYPDRPMLFEGPTQKNLMKFLDNWLWSTAVGPWFRCYILDYHDLSLPQDRDYVRWSREQWFLGGQRLEDVQAGREDRLPLVPPTLEPFRRILAETKWLGGDQPNFADYSALAVFLWTASVARTPPLTEDDPLRDWLDRGFDLFDGLGRHPGMNPLFGLKLREGDPEPFVRQTGPAGAGGQALNKGPQTTKMPPRVAEKAD
notes: full-length LigE (282 residues), E. coli, synthesized gene in pCPD, C-terminal CPD-His tag cleaved off after a leucine; dimer
Km [2]: 554 ± 16 µM | Vmax [2]: 59.7 µmol/min/mg | kcat [2]: 31.9 ± 0.6 s⁻¹ | kcat/Km [2]: 57600 ± 4800 M⁻¹ s⁻¹
